Target: ETV5 DNA-binding domain (pET-41a) (UniProt Q9CXC9 368-448)
Assay: EMSA

Chain of ETV5 DNA-binding domain (pET-41a) (Q9CXC9 368-448): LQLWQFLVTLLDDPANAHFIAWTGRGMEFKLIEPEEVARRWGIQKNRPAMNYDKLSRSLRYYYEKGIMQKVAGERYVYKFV

B1: EBS3 probe (Ccl9) (dsDNA)
DNA 1: CTCTAGTACCAGGGAATTTAACACCCTCTTC
DNA 2: GAAGAGGGTGTTAAATTCCCTGGTACTAGAG
binding result: binds
